Data as given in publication PMC12511343, “Structural insights into Cir-mediated killing by the antimicrobial protein Microcin V” (Communications Biology, 2025).

B1: 4-Met substituted E. coli Cir (colicin Ia receptor), the paper's wildtype (WT) Cir [E. coli] / Microcin V (MccV), mature, wildtype [modified: biotinylated (EZ-Link Sulfo-NHS-LC kit) for BLI and ELISA; not labelled for cryo-EM … (parent)
chain 1: VDDDGETMVVTASSVEQNLKDAPASISVITQEDLQRKPVQNLKDVLKEVPGVQLTNEGDNRKGVSIRGLDSSYTLILVDGKRVNSRNAVFRHNDFDLNWIPVDSIERIEVVRGPMSSLYGSDALGGVVNIITKKIGQKWSGTVTVDTTIQEHRDRGDTYNGQFFTSGPLIDGVLGMKAYGSLAKREKDDPQNSTTTDTGETPRIEGFSSRDGNVEFAWTPNQNHDFTAGYGFDRQDRDSDSLDKNRLERQNYSVSHNGRWDYGTSELKYYGEKVENKNPGNSSPITSESNTVDGKYTLPLTAINQFLTVGGEMRHDKMSDAVNLTGGTSSKTSASQYALFVEDEWRIFEPLALTTGVRMDDHETYGEHWSPRAYLVYNATDTVTVKGGWATAFKAPSLLQLSPDWTSNSCRGACKIVGSPDLKPETSESWELGLYYMGEEGWLEGVESSVTVFRNDVKDRISISRTSDVNAAPGYQNFVGFETGANGRRIPVFSYYNVNKARIQGVETELKIPFNDEWKLSINYTYNDGRDVSNGENKPLSDLPFHTANGTLDWKPLALEDWSMYMSGHYTGQKRADSATAKTPGGYTIWNTGAAWQVTKDVKLRAGVLNLGDKDLSRDDYSYNEDGRRYFMAVDYRF
chain 2: ASGRDIAMAIGTLSGQFVAGGIGAAAGGVAGGAIYDYASTHKPNPAMSPSGLGGTIKQKPEGIPSEAWNYAAGRLCNWSPNNLSDVCL

Variants of: B1
Assay: BLI
Conditions: for Kd: 100 nM biotinylated MccV loaded onto streptavidin-coated sensors, probed with dilutions of Cir, PBS-T; for response: raw shift at end of association (600 s), 100 nM biotinylated MccV on sensor, not baseline-subtracted, read off a plot
[1] = with 4-Met substituted E. coli Cir (colicin Ia receptor)

Row | Variant | Kd (with Microcin V (MccV)) [nM] | response (with Microcin V (MccV), 5 µM Cir, PBST trace at about 1.5 nm) [nm] | Kd [1] [nM] | response (with 4-Met substituted E. coli Cir (colicin Ia receptor), 5 µM WT Cir, PBST trace at about 1.85 nm) [nm] | response (with 4-Met substituted E. coli Cir (colicin Ia receptor), 5 µM WT Cir, PBST trace at about 1.65 nm) [nm]
1 | chain 1 C410A | 552 | 4.5 | – | – | –
2 | chain 2 D85R | – | – | 692 | 3.2 | –
3 | chain 2 D85A | – | – | 888 | – | 3.3
4 | chain 1 R411E R465E | 1580 | – | – | – | –
